Source: the supplement of paper PMC10724198
± gives the standard deviation of the averaged measurements.

System: Saccharomyces cerevisiae
Assay: protein stability index of tFT-peptide fusion (C-terminal peptide) (PSI (0-1 scale)); higher = more stable (slower turnover)
Conditions: genetic background: wild type; temperature: 30 C
Description: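 Multiplexed protein stability (MPS) profiling in S. cerevisiae. Random 12-aa peptides (tFT-X12 library) are fused to the C-terminus of a sfGFP-mCherry tandem fluorescent timer, after mCherry and a GGGS linker. Cells are FACS-sorted into 8 mCherry/sfGFP bins and deep-sequenced. The protein stability index (PSI) is the read-weighted bin average, scaled from 0 (unstable) to 1 (stable). Only peptides with >10 reads are reported; cells were grown at 30 °C in SC-His with glucose.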
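Also: PSI is a weighted mean of sequencing reads over stability bins, variants kept only with over 10 reads, mCherry proximal and sfGFP distal, peptide attached via GGGS linker.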

| Sequence | protein stability index |
| --- | --- |
| AGPGGAPVRWCR | 0.723 ± 0.037 |
| ALGNFPLGASVS | 0.676 ± 0.035 |
| RDKIRMIDSYLT | 0.696 ± 0.025 |
| GCGSYELLRSAS | 0.68 ± 0.012 |
| FSGCVEIYWHWL | 0.662 ± 0.011 |
| GIVVEELIFCGR | 0.63 ± 0.0087 |
| GGDAGGVFSRLC | 0.632 ± 0.0096 |
| FRDEVLGSGVGS | 0.65 ± 0.017 |
| SPLHLFHPPLLH | 0.729 ± 0.023 |
| PFSSPDLLRCPH | 0.752 ± 0.024 |
| LGRGGGGPLSGG | 0.717 ± 0.041 |
| PPTPPAFPPLLA | 0.662 ± 0.03 |
| RQGHKRVKISGM | 0.599 ± 0.091 |
| AWDGVESGRGLE | 0.67797 ± 0.00016 |
| YSGSKGVWTRWS | 0.687 ± 0.02 |
| GIGVVVLGGCTR | 0.706 ± 0.056 |
| SLWRLKESYRQS | 0.673 ± 0.039 |
| LILLLTPPVIHH | 0.743 ± 0.051 |
| FVLADLVPILFS | 0.7102 ± 0.0013 |
| NSSADRSTNPTQ | 0.649 ± 0.019 |
| PGKSGRKLVSSG | 0.681 ± 0.012 |
| PPSPPLRPPSLC | 0.704 ± 0.024 |
| GGVEWEQQGRKE | 0.706 ± 0.072 |
| PPLPPAPPPSPP | 0.652 ± 0.029 |
| AVGFFAASVPGF | 0.7293 ± 0.0069 |

| Sequence | protein stability index |
| --- | --- |
| IESASRSTTGGI | 0.77 ± 0.14 |
| PRLLPPDPRHAP | 0.7002 ± 0.0032 |
| VRNASEDSVGQL | 0.708 ± 0.046 |
| LLPRLRHPSRGK | 0.73 ± 0.15 |
| EPDQERKSIQGM | 0.7 ± 0.013 |
| CFSRCLSLLSSS | 0.636 ± 0.021 |
| PSPVLLLPPPSL | 0.745 ± 0.059 |
| RSLPPGFPSTLL | 0.652 ± 0.014 |
| PSRYHPLPPPTP | 0.711 ± 0.084 |
| FLPCPPSPPSPR | 0.765 ± 0.06 |
| SPLPLLRPPSSH | 0.593 ± 0.047 |
| SVAPRLFSPSHP | 0.6548 ± 0.0055 |
| SCVTLTGLSGDK | 0.698 ± 0.016 |
| KELRYKKDRKKK | 0.689 ± 0.026 |
| KKNKKQDDKKRQ | 0.645 ± 0.039 |
| PPASSARPLLFL | 0.6664 ± 0.0053 |
| NKISRDAVWNCR | 0.657 ± 0.053 |
| RGGGRRAWVWGG | 0.675 ± 0.036 |
| CTRRACDVRAVL | 0.699 ± 0.025 |
| WREAVMKRQGGG | 0.677 ± 0.014 |
| PPPPPQLPQCPP | 0.711 ± 0.042 |
| GLEFTAFRLRFL | 0.667 ± 0.068 |
| SPRNIVFQPLSP | 0.622 ± 0.069 |
| YPKGKHSQDSHV | 0.656 ± 0.039 |
| KIGEVNKKQSII | 0.743 ± 0.064 |

| Sequence | protein stability index |
| --- | --- |
| FFWFIASTNFSS | 0.609 ± 0.015 |
| YFTARLLFFGYI | 0.725 ± 0.1 |
| GGEICPARECGA | 0.648 ± 0.042 |
| LTRKTPQKRAPQ | 0.704 ± 0.013 |
| PPFPPPLLPPSP | 0.732 ± 0.036 |
| PPLPLSTLFLSA | 0.712 ± 0.041 |
| VWFDPHEFIVIA | 0.59 ± 0.027 |
| AVSSGPGSCSNP | 0.668 ± 0.013 |
| SSPQASILIRDF | 0.778 ± 0.1 |
| CGSWAGRAWPGR | 0.755 ± 0.014 |
| ISLGGNWHRVVT | 0.649 ± 0.019 |
| LPSHAPRRPTFP | 0.7403 ± 0.0056 |
| SLVLRPTGILLI | 0.536 ± 0.019 |
| GFGSTTTRLALV | 0.662 ± 0.13 |
| VIRPMTVYSVVS | 0.515 ± 0.029 |
| GGLWAAAGKARV | 0.692 ± 0.026 |
| WSPPRAAPRPHP | 0.642 ± 0.045 |
| PLCPPPPTSPPP | 0.666 ± 0.031 |
| RGGGGPGWGSRG | 0.684 ± 0.025 |
| GVCLQGRRASGE | 0.693 ± 0.091 |
| RLHFSSPLLHPP | 0.601 ± 0.041 |
| SGLRLQLLVGHT | 0.632 ± 0.013 |
| YSTFPPRIPRPP | 0.524 ± 0.011 |
| APPPAPSPPLAP | 0.69 ± 0.027 |
| GIKAIEKGDIHL | 0.699 ± 0.021 |

| Sequence | protein stability index |
| --- | --- |
| KKKKKKNSEKMK | 0.704 ± 0.062 |
| RLGRGRRGMRWL | 0.659 ± 0.025 |
| RSCGKAYNLLPL | 0.683 ± 0.052 |
| PPPPSRPPPAPR | 0.701 ± 0.053 |
| LGLSDPERLFVI | 0.664 ± 0.025 |
| SAVLLLNAGGLV | 0.688 ± 0.0071 |
| GGGWSRGGSGAG | 0.687 ± 0.011 |
| TQGPTAPADPCS | 0.67049 ± 0.00033 |
| VTGIDGGSLCLR | 0.6842 ± 0.0059 |
| SQSEGTLELINK | 0.679 ± 0.043 |
| YCFRFGLLIFGD | 0.548 ± 0.01 |
| SIKKQLQKKKQK | 0.743 ± 0.1 |
| PQRPRTLPPLTP | 0.7236 ± 0.0015 |
| SSLPASPAPPHL | 0.702 ± 0.066 |
| RLPVIPRLIPSS | 0.635 ± 0.028 |
| GGPVGGGGGSGE | 0.641 ± 0.032 |
| VGDCVVRGLWLS | 0.639 ± 0.03 |
| PPPPLPPSSPPL | 0.751 ± 0.027 |
| HLTVSRIRLISK | 0.658 ± 0.079 |
| TSPAPYPRPPPT | 0.723 ± 0.036 |
| SISSFLSLLFFR | 0.639 ± 0.062 |
| ISGEISTLLKTR | 0.71 ± 0.081 |
| PTRPSHTALPSA | 0.664 ± 0.023 |
